Assay results: patent US20170355733A1
Changes are numbered by the printed parent chain. Names may count otherwise. Each block holds one binder with its values, some of them ahead of it.

Columns and labels:
[1] = biological target: aTNF-Fab (Fab fragment of anti-human TNFα monoclonal IgG, generic name Infliximab, product name Remicade); experiment: SPR Biacore 3000, aTNF-Fab amine-coupled on CM5, peptide flowed, 25 °C, pH 7.4, 1:1 fit
[2] = biological target: aTNF-Fab (Fab fragment of anti-human TNFα monoclonal IgG, generic name Infliximab, product name Remicade); experiment: affinity chromatography on aTNF-Fab-immobilized column, linear pH gradient 5.5 to 2.5, pH at elution peak top
[3] = biological target: aTNF-Fab (Fab fragment of anti-human TNFα monoclonal IgG, generic name Infliximab, product name Remicade); experiment: affinity constant KA for aTNF-Fab, summing up Table 2 (method not shown in the excerpt)

B1: GB1#-Cont.1d (designed binder)
chain: GPLGSTTYKLILNGKTLTGYTTAIAADAATAEIVLKQFANDNGIDGEWTYDDATKTFTVTE
Ka [1]: 2.45e+06 M⁻¹
koff [1]: 0.017 s⁻¹
kon [1]: 41700 M⁻¹ s⁻¹
Dissociation pH [2]: 2.6 pH

B2: GB1#-D36V.1d (designed binder)
chain: B1 chain with D41V
Ka [1]: 510000 M⁻¹
koff [1]: 0.064 s⁻¹
kon [1]: 32800 M⁻¹ s⁻¹
Ka [3]: > 500000 M⁻¹
Dissociation pH [2]: 3.4 pH

The remaining lines, values ahead:

Ka [1]: 880000 M⁻¹
koff [1]: 0.0285 s⁻¹
kon [1]: 25000 M⁻¹ s⁻¹
Ka [3]: > 500000 M⁻¹
Dissociation pH [2]: 2.85 pH
B3: GB1#-T17A.1d (designed binder)
chain: B1 chain with T22A

Ka [1]: 570000 M⁻¹
koff [1]: 0.0335 s⁻¹
kon [1]: 19100 M⁻¹ s⁻¹
Ka [3]: > 500000 M⁻¹
Dissociation pH [2]: 3 pH
B4: GB1#-T17V.1d (designed binder)
chain: B1 chain with T22V
